Patent US20140113854A1 (NATIONAL RESEARCH COUNCIL OF CANADA, published 2014)
Positions count from the first letter of the chain named. Positions of bridges follow the written chain, without caps; N, C: chain ends. Non-standard residues stand in square brackets, D forms with d. Chains are numbered I, II in the order given. No end group written: not given here. *: point of attachment. Benzenesulfonyl(4-tBu) = CC(C)(C)c1ccc(S(=O)(=O)*)cc1; dPip = O=C(O)[C@H]1CCCCN1

Assays:
Human α-thrombin [1] = biological target: T1, Human α-thrombin (human, UniProt P00734 328-363; P00734 364-622); experiment: cell-based or functional assay
Human α-thrombin [2] = biological target: T1, Human α-thrombin; experiment: cell-based or functional assay; remark: listed apart in the source
Human α-thrombin [3] = biological target: T1, Human α-thrombin; experiment: inhibition of thrombin-catalysed hydrolysis of chromogenic substrate S-2366, 25 °C
Excerpt: (§1) Human α-thrombin was purchased from Haemotologic Technologies, Inc., VT, USA.

Human α-thrombin [4] = biological target: T1, Human α-thrombin; experiment: inhibition of thrombin-catalysed hydrolysis of chromogenic substrate S-2366, 37 °C
Excerpt: as §1

Human α-thrombin [5] = biological target: T1, Human α-thrombin; experiment: enzyme kinetics, thrombin-catalysed chromogenic substrate hydrolysis, 37 °C
Human α-thrombin [6] = biological target: T1, Human α-thrombin; experiment: cell-based or functional assay; remark: listed apart in the source
Human α-thrombin [7] = biological target: T1, Human α-thrombin; experiment: cell-based or functional assay; remark: listed apart in the source
rat-tail collagen type I [8] = biological target: T2, rat-tail collagen type I (rat, UniProt P02454 152-1207; P02466 86-1125); experiment: NMR in collagen hydrogel
T2 construct: Used in solution and as randomly deposited or partially aligned hydrogel; Human collagen gels were also prepared; also called collagen hydrogel; rat collagen
T2 sequence (P02454 152-1207 limits assumed, chain 1 of 2): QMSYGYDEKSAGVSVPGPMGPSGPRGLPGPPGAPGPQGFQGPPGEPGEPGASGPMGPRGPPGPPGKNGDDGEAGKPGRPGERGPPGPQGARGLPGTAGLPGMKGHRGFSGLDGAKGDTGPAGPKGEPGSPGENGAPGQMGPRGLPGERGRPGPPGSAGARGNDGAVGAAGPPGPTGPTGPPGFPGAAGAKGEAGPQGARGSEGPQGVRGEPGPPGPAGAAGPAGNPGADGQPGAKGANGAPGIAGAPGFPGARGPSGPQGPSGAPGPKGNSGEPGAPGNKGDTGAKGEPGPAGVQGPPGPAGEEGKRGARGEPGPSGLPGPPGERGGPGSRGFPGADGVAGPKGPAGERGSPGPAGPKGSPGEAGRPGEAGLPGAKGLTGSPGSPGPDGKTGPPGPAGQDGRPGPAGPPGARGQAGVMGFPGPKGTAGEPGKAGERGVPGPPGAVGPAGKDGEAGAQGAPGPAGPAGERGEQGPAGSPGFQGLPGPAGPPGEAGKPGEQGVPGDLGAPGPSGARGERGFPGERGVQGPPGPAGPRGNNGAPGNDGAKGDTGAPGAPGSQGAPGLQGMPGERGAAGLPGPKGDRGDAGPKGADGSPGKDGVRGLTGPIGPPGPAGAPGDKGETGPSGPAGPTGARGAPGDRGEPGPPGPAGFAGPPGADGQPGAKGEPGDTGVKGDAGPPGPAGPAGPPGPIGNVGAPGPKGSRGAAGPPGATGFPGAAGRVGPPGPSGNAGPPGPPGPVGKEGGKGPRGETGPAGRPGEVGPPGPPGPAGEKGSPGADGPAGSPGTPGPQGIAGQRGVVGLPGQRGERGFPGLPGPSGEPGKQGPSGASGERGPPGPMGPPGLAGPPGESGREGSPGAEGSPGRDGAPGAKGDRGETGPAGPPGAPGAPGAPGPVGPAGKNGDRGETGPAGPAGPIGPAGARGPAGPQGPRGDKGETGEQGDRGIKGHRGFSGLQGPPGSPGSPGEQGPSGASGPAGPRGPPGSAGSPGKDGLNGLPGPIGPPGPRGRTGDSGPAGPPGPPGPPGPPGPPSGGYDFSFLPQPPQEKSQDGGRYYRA
T2 sequence (P02466 86-1125 limits assumed, chain 2 of 2): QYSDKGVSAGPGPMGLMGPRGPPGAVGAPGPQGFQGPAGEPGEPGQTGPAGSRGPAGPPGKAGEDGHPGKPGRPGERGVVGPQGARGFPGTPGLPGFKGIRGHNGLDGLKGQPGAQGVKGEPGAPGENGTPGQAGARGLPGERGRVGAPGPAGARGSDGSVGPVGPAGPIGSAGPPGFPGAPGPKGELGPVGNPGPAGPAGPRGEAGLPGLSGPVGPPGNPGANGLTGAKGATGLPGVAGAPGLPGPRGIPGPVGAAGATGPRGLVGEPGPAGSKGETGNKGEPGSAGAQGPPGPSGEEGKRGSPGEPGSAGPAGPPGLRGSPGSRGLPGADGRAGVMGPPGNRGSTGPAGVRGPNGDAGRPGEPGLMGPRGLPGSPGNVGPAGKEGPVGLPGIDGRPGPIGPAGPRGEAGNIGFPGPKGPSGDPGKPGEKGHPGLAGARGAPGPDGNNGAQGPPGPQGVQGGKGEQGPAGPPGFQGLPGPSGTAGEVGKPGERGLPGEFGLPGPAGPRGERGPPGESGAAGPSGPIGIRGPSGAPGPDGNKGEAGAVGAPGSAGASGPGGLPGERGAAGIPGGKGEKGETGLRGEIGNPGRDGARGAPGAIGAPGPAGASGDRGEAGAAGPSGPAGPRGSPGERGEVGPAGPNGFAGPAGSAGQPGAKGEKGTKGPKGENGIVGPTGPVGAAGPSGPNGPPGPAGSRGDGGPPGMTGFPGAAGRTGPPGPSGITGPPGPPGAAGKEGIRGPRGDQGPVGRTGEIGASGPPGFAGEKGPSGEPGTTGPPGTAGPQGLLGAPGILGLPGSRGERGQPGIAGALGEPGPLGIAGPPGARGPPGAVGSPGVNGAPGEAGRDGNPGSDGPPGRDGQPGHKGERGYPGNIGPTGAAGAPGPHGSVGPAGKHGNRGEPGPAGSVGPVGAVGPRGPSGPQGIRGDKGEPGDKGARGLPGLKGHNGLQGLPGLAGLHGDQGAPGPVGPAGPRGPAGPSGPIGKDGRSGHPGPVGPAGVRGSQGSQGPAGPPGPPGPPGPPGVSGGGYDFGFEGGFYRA

Human α-thrombin [9] = biological target: T1, Human α-thrombin; experiment: inhibition of thrombin-catalysed hydrolysis of chromogenic substrate S-2366, 37 °C; remark: listed apart in the source
Human α-thrombin [10] = biological target: T1, Human α-thrombin; experiment: inhibition of human α-thrombin
rat-tail collagen type I [11] = biological target: T2, rat-tail collagen type I; experiment: deuterium NMR of collagen gel formed with the peptide; called a semi-quantitative indication of peptide-collagen binding
rat-tail collagen type I [12] = biological target: T2, rat-tail collagen type I; experiment: proton NMR and deuterium coupling constant of collagen gel
Human α-thrombin [13] = biological target: T1, Human α-thrombin; experiment: thrombin inhibition, 37 °C
Human α-thrombin [14] = biological target: T1, Human α-thrombin; experiment: enzyme kinetics, thrombin-catalysed chromogenic substrate hydrolysis, 37 °C, 50 s window
Human α-thrombin [15] = biological target: T1, Human α-thrombin; experiment: inhibition of thrombin by monovalent active-site moiety; conditions not given at the table
Human α-thrombin [16] = biological target: T1, Human α-thrombin; experiment: derived from Ki and punfold (KD = Ki x popen), S-2366 kinetics, 37 °C
Excerpt: as §1

B1: MH2 (peptide)
peptide: IRFTDGEGTPNPESHNNGDFEEIPEEYLQ
modifications: ends and bridges not checked; also: uniformly 15N-labelled
notes: Linker HV2(42-53); Uniformly 15N-labelled for the NMR work; also called mini-hirudin 2
IC50 (assay not given) (Human α-thrombin [1]): ~14 nM | IC50, T = 37° C. (Human α-thrombin [2]): 14 nM | Ki (Human α-thrombin [3]): 34 nM | Ki (Human α-thrombin [4]): 67 nM

FQPRPRFTDGEWTWDDATKTWTWTEGDFEEIPEEYL (also called P4223) [BRI-T207]
Ki (Human α-thrombin [5]): 404 nM

WDPRIRFTDGEWTWDDATKTWTWTEGDFEEIPEEYL [BRI-T219]
Ki (Human α-thrombin [5]): 164 nM

VRFTDGEGTPKPQSHDNGDFEEIPEEYLQ (ends and bridges not checked) [MH1]
IC50 (assay not given) (Human α-thrombin [1]): ~33 nM

IRFTDGSWTWEGNKWTWKGDFEEIPEEYLQ (also called P4269) [MH2-wZIP1]
Ki (Human α-thrombin [5]): 18.4 nM

IRFTDGEWTWDDATKTWTWTEGDFEEIPEEYLQ (ends and bridges not checked; also: 15N-labelled) [MH2-wZIP4]
IC50, fibrinogen clotting assay, 25 °C (Human α-thrombin [6]): 245 nM | IC50, fibrinogen clotting assay, 37 °C (Human α-thrombin [6]): 154 nM | IC50, fibrinogen clotting assay, 42 °C (Human α-thrombin [6]): 148 nM | KI (Thrombin Inhibition); IC50 by the clotting assay, 37 °C (Human α-thrombin [7]): 154 nM | IC50, T = 37° C. (Human α-thrombin [2]): 154 nM

IRFTDGEWTYDDATKTFTVTEGDFEEIPEEYLQ (ends and bridges not checked) [MH2-gb1]
IC50, fibrinogen clotting assay, 25 °C (Human α-thrombin [6]): 49 nM | IC50, fibrinogen clotting assay, 37 °C (Human α-thrombin [6]): 86 nM

B2: BRI-T109 (peptide)
peptide: PRFTDGEWTWDDATKTWTWTEGDFEEIPEEYLQ
notes: MH2-wZIP4 with the first residue Ile replaced by Pro; also called P4230
Ki (Human α-thrombin [5]): 1450 nM

IRFTDGEWTYDDATKTFTWTEGDFEEIPEEYLQ [MH2-wZIP5]
IC50, fibrinogen clotting assay, 25 °C (Human α-thrombin [6]): 80 nM | IC50, fibrinogen clotting assay, 37 °C (Human α-thrombin [6]): 107 nM | KI (Thrombin Inhibition); IC50 by the clotting assay, 37 °C (Human α-thrombin [7]): 107 nM

IRFTDGEWTWDDATKTWTVTEGDFEEIPEEYLQ [MH2-wZIP6]
IC50, fibrinogen clotting assay, 25 °C (Human α-thrombin [6]): 47 nM | IC50, fibrinogen clotting assay, 37 °C (Human α-thrombin [6]): 53 nM | KI (Thrombin Inhibition); IC50 by the clotting assay, 37 °C (Human α-thrombin [7]): 53 nM

IRFTDGSGSGSGSGSGSGDFEEIPEEYLQ (ends and bridges not checked, (GS)6 linker) [MH2-allGS]
Ki (Human α-thrombin [5]): 58 nM | Ki (Human α-thrombin [3]): 30 nM | Ki (Human α-thrombin [4]): 50 nM

IRFTDGEGTGSGSGSGSGDFEEIPEEYLQ (ends and bridges not checked, GEGT(GS)4 linker; comparative control) [MH2-GS]
binding result (rat-tail collagen type I [8]): no binding | Ki (Human α-thrombin [3]): 27 nM | Ki (Human α-thrombin [4]): 59 nM | Ki (Human α-thrombin [9]): 60 nM

IRFTDGGSWTWEGNKWTWKGGDFEEIPEEYLQ (also called P4268) [MH2-wZIP1-2G]
Ki (Human α-thrombin [5]): 16.6 nM

B3: TWE1 (peptide)
peptide 1: {Benzenesulfonyl(4-tBu)}-R[dPip]GC
peptide 2: CGSGSGSGSGSGSGSGSGDFEEIPEEYLQ
modifications: disulfide I:4-II:1; ends not checked; also: uniformly 15N-labelled
notes: Analog of BTI1 in which the two parts are joined by a disulfide bond
Ki (Human α-thrombin [10]): 2.2 nM

GEWTYDDATKTFTWTE-NH2 (Isolated linker peptide) [trpzip5-NH2]
reduction of the deuterium coupling constant (collagen fibril alignment) (rat-tail collagen type I [11]): < 0.5 Hz

GEWTYDDATKTFTVTE-NH2 (Isolated linker peptide) [gb1-NH2]
binding result (rat-tail collagen type I [12]): no binding

[dF]PRPRFTDGEWTWDDATKTWTWTEGDFEEIPEEYL (ends and bridges not checked, also called P4229) [BRI-T208]
fold reduction of Ki as compared to BRI-T207 (Human α-thrombin [13]): ~13 fold | fold reduction of Ki as compared to MH2-wZIP4 (Human α-thrombin [13]): ~5 fold | Ki (Human α-thrombin [5]): 28 nM

[dF]PRIRFTDGEWTWDDATKTWTWTEGDFEEIPEEYL (ends and bridges not checked, also called P4238) [BRI-T218]
Ki (Human α-thrombin [14]): 14 nM

IRFTDG (Monovalent active-site moiety)
Ki (Human α-thrombin [15]): 7000 nM

GEWTWDDATKTWTWTE-NH2 (Isolated linker peptide) [trpzip4-NH2]
reduction of the deuterium coupling constant (collagen fibril alignment) (rat-tail collagen type I [11]): > 1 Hz

GEWTWDDATKTWTVTE-NH2 (Isolated linker peptide) [trpzip6-NH2]
reduction of the deuterium coupling constant (collagen fibril alignment) (rat-tail collagen type I [11]): < 0.5 Hz

B4: BTI2 (peptide)
peptide: XRXGEWTYDDATKTFTVTEGDFEEIPEEYLQ
modifications: N-terminal Bbs (4-tert-butyl-benzenesulfonyl) on Arg; D-pipecolic acid (D-Pip) after Arg
notes: gb1 linker
Kd (Human α-thrombin [16]): 2.8 nM

B5: BTI4 (peptide)
peptide: B4 peptide with V17W
modifications: N-terminal Bbs (4-tert-butyl-benzenesulfonyl) on Arg; D-pipecolic acid (D-Pip) after Arg
Kd (Human α-thrombin [16]): 2.8 nM
